Target: T1, human galectin-9 CRD2 domain (human, UniProt O00182 227-355, limits assumed)
T1 construct: domain: CRD2; also called human CRD2 domain of galectin-9
Test: ELISA; antibody titrated over immobilized Galectin-9 CRD2, saturation curve

T1 sequence (O00182 227-355 limits assumed): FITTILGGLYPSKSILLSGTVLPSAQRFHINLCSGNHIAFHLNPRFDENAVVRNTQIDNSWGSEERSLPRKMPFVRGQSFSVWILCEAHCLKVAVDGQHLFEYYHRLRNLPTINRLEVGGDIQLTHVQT

B1: anti-Galectin-9 antibody G9.2-17 (IgG4) (antibody, V domains shown)
VH: EVQLVESGGGLVQPGGSLRLSCAASGFTVSSSSIHWVRQAPGKGLEWVAYISSSSGYTYYADSVKGRFTISADTSKNTAYLQMNSLRAEDTAVYYCARYWSYPSWWPYRGMDYWGQGTLVTVSS
VL: DIQMTQSPSSLSASVGDRVTITCRASQSVSSAVAWYQQKPGKAPKLLIYSASSLYSGVPSRFSGSRSGTDFTLTISSLQPEDFATYYCQQSSTDPITFGQGTKVEIKR
notes: Human IgG4 with S228P (EU); also called G9.2-17(Ig4); G9.2-17 hIgG4 Fab Arm Exchange mut
Work on B1 yielded a Kd of less than 1 nM.

Source: patent US20240109968A1 (NEW YORK UNIVERSITY, published 2024)
